Laboratory results: publication PMC9482650, “Quantitative fragmentomics allow affinity mapping of interactomes” (Nature Communications, 2022)

Experiments:
Assay in all cases: holdup assay
Set-up in all cases: key: below the threshold = too weak to quantify, mostly under pKd 3.1 to 4
Conditions in all cases: plain residues with an end cap or a label only (N-terminal biotin on a linker: ado-ado)
[1] = molecular target: MAGI2_4, Q86UL8
[2] = molecular target: T1, TX1BP3, O14907
T1 sequence (O14907 10-122, limits assumed, looked up): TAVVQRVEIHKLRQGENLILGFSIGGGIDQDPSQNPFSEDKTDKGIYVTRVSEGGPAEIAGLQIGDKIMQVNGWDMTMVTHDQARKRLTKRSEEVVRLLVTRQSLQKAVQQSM

[3] = molecular target: Inadl_8, Q8NI35
[4] = molecular target: DLG4_1, P78352
[5] = molecular target: HTRA2, O43464
[6] = molecular target: SCRIB_3, Q14160
[7] = molecular target: GOPC, Q9HD26
[8] = molecular target: Inadl_6, Q8NI35
[9] = molecular target: T2, LNX2_2, Q8N448
T2 sequence (Q8N448 334-432, limits assumed, looked up): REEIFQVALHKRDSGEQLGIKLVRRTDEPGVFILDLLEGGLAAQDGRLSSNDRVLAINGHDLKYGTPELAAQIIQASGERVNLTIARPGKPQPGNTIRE

[10] = molecular target: T3, GRIP1_5, Q9Y3R0
T3 sequence (Q9Y3R0 568-668, limits assumed, looked up): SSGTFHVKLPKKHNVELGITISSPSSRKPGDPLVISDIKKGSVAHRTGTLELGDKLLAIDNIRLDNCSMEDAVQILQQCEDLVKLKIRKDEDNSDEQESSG

[11] = molecular target: FRMPD2_1, Q68DX3
[12] = molecular target: T4, RAPGEF6, Q8TEU7
T4 sequence (Q8TEU7 525-625, limits assumed, looked up): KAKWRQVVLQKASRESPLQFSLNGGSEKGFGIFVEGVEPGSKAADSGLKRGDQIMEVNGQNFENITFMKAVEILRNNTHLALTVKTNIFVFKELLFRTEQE

[13] = molecular target: T5, DLG3_2, Q92796
T5 sequence (Q92796 221-321, limits assumed, looked up): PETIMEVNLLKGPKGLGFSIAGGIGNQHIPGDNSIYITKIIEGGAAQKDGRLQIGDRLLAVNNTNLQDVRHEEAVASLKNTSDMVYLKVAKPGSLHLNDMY

[14] = molecular target: GORASP2, Q9H8Y8
[15] = molecular target: T6, MPDZ_12, O75970
T6 sequence (O75970 1857-1958, limits assumed, looked up): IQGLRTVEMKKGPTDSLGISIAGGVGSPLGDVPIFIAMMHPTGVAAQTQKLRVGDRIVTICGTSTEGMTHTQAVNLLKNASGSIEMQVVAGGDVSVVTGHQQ

[16] = molecular target: T7, DLG3_1, Q92796
T7 sequence (Q92796 125-227, limits assumed, looked up): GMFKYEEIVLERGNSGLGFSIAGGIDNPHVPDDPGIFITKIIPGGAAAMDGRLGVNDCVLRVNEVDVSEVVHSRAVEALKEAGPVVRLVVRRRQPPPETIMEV

[17] = molecular target: PTPN3, P26045
[18] = molecular target: T8, FRMPD1, Q5SYB0
T8 sequence (Q5SYB0 52-145, limits assumed, looked up): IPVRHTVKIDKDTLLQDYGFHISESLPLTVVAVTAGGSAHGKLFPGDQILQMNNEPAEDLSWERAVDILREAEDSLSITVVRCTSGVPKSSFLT

[19] = molecular target: Inadl_3, Q8NI35
[20] = molecular target: FRMPD2_2, Q68DX3
[21] = molecular target: TJP2_1, Q9UDY2
[22] = molecular target: MAGI2_5, Q86UL8
[23] = molecular target: PICK1, Q9NRD5
[24] = molecular target: MAST1, Q9Y2H9
[25] = molecular target: T9, PARD3B_1, Q8TEW8
T9 sequence (Q8TEW8 196-299, limits assumed, looked up): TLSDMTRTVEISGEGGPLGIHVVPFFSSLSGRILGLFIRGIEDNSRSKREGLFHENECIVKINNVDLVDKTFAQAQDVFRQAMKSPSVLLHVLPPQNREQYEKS

[26] = molecular target: T10, SNTB1, Q13884
T10 sequence (Q13884 107-205, limits assumed, looked up): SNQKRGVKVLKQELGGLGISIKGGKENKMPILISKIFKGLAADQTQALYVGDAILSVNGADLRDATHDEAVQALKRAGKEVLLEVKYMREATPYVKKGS

[27] = molecular target: MAST2, Q6P0Q8

Measured: pKd

Sequence of MAGI2_4, Q86UL8 (Q86UL8 772-865): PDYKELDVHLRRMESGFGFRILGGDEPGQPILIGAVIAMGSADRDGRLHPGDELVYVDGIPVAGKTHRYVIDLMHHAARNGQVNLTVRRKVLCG
Sequence of HTRA2, O43464 (O43464 355-458): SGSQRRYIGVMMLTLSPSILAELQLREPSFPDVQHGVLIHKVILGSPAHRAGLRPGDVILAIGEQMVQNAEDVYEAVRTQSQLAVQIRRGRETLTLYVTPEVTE
Sequence of PTPN3, P26045 (P26045 505-587): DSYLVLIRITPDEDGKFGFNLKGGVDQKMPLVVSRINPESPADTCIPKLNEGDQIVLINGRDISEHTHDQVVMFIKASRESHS
Sequence of PICK1, Q9NRD5 (Q9NRD5 17-115): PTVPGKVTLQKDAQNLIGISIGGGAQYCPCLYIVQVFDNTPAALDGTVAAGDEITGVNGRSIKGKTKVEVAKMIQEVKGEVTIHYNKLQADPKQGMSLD
Sequence of MAST2, Q6P0Q8 (Q6P0Q8 1099-1202): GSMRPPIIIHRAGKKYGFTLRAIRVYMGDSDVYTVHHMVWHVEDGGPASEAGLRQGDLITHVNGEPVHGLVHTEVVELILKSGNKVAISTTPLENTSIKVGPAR
Sequence of Inadl_8, Q8NI35 (Q8NI35 1425-1530): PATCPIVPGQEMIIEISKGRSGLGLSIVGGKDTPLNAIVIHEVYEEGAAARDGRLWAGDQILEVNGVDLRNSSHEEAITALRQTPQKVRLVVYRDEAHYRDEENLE
Sequence of FRMPD2_1, Q68DX3 (Q68DX3 770-861): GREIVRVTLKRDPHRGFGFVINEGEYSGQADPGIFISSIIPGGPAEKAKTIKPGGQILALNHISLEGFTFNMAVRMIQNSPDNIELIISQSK
Sequence of FRMPD2_2, Q68DX3 (Q68DX3 944-1038): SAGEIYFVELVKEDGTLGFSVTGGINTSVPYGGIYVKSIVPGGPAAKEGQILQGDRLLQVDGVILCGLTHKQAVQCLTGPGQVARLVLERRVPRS
Sequence of Inadl_3, Q8NI35 (Q8NI35 359-469): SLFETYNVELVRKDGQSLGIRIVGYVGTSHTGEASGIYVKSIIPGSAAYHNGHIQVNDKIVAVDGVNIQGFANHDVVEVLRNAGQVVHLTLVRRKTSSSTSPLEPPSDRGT
Sequence of SCRIB_3, Q14160 (Q14160 999-1103): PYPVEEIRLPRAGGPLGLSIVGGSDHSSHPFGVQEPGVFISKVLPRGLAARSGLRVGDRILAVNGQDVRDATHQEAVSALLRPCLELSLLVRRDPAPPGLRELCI
Sequence of MAST1, Q9Y2H9 (Q9Y2H9 962-1065): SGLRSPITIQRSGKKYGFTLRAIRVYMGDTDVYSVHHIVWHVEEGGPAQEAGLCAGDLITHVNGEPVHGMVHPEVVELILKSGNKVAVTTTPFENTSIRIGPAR
Sequence of MAGI2_5, Q86UL8 (Q86UL8 915-1017): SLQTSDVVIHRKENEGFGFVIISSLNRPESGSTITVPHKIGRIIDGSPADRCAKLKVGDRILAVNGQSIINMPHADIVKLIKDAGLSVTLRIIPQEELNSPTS
Sequence of TJP2_1, Q9UDY2 (Q9UDY2 24-128): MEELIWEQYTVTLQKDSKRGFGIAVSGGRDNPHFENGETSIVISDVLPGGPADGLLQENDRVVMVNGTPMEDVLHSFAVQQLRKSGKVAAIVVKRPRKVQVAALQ
Sequence of DLG4_1, P78352 (P78352 62-152): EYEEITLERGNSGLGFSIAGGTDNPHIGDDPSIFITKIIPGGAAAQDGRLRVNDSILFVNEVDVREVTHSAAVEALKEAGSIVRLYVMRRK
Sequence of Inadl_6, Q8NI35 (Q8NI35 1058-1167): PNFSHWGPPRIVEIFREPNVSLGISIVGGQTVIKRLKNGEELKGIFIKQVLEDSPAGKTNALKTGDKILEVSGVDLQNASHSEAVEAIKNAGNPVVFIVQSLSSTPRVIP

VGIERETDVL [EZH1, Q92800]
3.88: [27]
3.58: [6]
4.52: [26]
4.09: [23]
3.65: [25]
3.52: [17]
3.54: [13]
below the threshold: all other assays above

ADRDHASDQL [CTBP1, Q13363]
4.13: [23]
below the threshold: all other assays above

GSSSKEGTSV [RRBP1, Q9P2E9]
3.69: [16]
3.9: [26]
4.12: [4]
5.01: [17]
4.14: [23]
4.23: [6]
3.78: [13]
4.32: [1] | [24]
3.62: [7]
4.15: [9]
3.91: [3]
4.75: [27]
below the threshold: all other assays above

EGGKKRESEA [APPL1, Q9UKG1]
3.82: [6]
4.14: [17]
4.22: [13]
4.12: [24]
3.49: [12]
3.54: [15]
below the threshold: all other assays above
